According to patent publication US20260125457A1 (Janssen / Centocor, published 2026):

Experiments:
[1] = target: T1, CALRdel52 (mutant calreticulin, 52 base pair deletion, Type 1) expressed with MPL on engineered cancer cells (UniProt P27797 18-417); assay: flow cytometry on OCI-M2 MPL CALRdel52 cells, 1 h at 37 C, AF647 secondary antibody, Geometric Mean
T1 construct: whole, on cells; On the cell surface in complex with MPL; also called OCI-M2 MPL CALRdel52
T1 sequence (looked up): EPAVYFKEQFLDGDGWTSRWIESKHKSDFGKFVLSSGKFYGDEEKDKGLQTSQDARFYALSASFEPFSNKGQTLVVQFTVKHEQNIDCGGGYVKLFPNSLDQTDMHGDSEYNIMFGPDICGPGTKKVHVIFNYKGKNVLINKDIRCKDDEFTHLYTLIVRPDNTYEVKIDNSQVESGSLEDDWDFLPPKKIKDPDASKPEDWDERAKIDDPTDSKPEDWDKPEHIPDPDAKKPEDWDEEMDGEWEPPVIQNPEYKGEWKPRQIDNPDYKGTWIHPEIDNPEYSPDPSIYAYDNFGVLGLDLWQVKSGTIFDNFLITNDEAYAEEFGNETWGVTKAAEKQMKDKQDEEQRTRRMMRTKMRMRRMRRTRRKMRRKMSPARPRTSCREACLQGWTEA
Experimental: FIGS. 21A-21F depict binding of different CALRmutxCD3 bispecific antibodies to CALRmut-negative or CALRmut-positive cells. Flow cytometry was used to evaluate CALRmutxCD3 binding to CALRmut-negative and CALRmut-positive cancer cells in vitro. CALRmutxCD3 antibodies were tested on a panel of cell lines, engineered to express MPL and CALRmut, after 1 hour 37° C. incubation, with subsequent incubation with secondary AF647-labeled antibody. Geometric mean fluorescence intensity of AF647 was measured to determine antibody binding.

[2] = target: T2, wild-type calreticulin (CALRwt) expressed with MPL in engineered cancer cells (UniProt P27797 18-417, limits assumed); assay: flow cytometry, ELF-153 and OCI-M2 MPL CALRwt cells
T2 construct: whole, on cells; also called OCI-M2 MPL CALRwt
T2 sequence (looked up): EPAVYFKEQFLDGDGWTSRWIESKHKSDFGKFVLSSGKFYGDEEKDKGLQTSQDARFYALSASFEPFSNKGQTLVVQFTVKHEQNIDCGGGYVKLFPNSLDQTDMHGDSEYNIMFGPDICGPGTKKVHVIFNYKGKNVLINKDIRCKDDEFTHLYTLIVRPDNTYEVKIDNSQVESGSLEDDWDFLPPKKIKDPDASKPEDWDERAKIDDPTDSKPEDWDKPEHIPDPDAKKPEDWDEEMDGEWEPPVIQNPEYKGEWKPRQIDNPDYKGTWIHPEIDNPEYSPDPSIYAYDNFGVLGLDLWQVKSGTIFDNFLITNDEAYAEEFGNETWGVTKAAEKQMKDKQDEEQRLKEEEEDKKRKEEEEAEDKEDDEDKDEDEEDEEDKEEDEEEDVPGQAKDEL

[3] = target: T3, CD3 on primary human pan T cells (human, UniProt P07766 23-207); assay: flow cytometry on pan CD3 T cells, 1 h at 37 C, AF647 secondary antibody, Geometric Mean
T3 construct: whole, on cells; also called CD3e; CD3ε
T3 sequence (P07766 23-207): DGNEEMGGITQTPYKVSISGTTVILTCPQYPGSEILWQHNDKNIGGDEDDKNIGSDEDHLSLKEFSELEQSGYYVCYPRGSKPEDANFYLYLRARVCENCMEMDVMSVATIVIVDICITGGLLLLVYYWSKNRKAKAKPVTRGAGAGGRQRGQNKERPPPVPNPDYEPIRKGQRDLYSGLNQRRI
Experimental: FIG. 22 depicts binding of different CALRmutxCD3 bispecific antibodies to pan CD3 T cells. Flow cytometry was used to evaluate CALRmutxCD3 binding to pan CD3 T cells in vitro, by 1 hour 37° C. incubation, with subsequent incubation with secondary AF647-labeled antibody. Geometric mean fluorescence intensity of AF647 was measured to determine antibody binding.
Flow cytometry was used to evaluate the CD3 arm binding of CALRmutxCD3 antibodies listed in Table 21 to CD3+ pan T cells from healthy human donor. CALRmutxCD3 were tested after 1 hour 37° C. incubation with pan T cells.

[4] = target: T4, CALRins5 (mutant calreticulin, 5 base pair insertion, Type 2) expressed with MPL on engineered cancer cells (UniProt P27797 18-417); assay: flow cytometry, OCI-M2 and ELF-153 MPL CALRins5 cells
T4 construct: whole, on cells; On the cell surface in complex with MPL; also called OCI-M2 MPL CALRins5
T4 sequence (looked up): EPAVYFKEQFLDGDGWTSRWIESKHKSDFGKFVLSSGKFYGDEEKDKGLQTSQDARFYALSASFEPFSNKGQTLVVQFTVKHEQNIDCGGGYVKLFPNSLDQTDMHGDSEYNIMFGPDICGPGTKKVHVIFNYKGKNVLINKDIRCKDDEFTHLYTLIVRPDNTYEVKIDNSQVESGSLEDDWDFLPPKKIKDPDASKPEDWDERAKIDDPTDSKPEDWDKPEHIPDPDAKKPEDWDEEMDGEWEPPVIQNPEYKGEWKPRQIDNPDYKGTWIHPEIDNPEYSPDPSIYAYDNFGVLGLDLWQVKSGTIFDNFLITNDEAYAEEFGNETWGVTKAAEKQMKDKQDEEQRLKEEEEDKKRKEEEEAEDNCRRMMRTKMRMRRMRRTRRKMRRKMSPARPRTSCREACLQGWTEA

[5] = target: T1, CALRdel52 (mutant calreticulin, 52 base …); assay: flow cytometry, OCI-M2 and ELF-153 MPL CALRdel52 cells
[6] = target: T2, wild-type calreticulin (CALRwt) …; assay: flow cytometry, OCI-M2 and ELF-153 MPL CALRwt cells

B1: C3CRB127 CALRmut x CD3 bispecific antibody (bispecific antibody, human IgG1, kappa, L234A L235A)
heavy 1: QVQLVQSGAEVKKPGASVKVSCKASGFSLSSYAMSWVRQAPGQGLEWMGVIDSGGTTYYAQKFQGRVTMTRDTSTSTVYMELSSLRSEDTAVYYCARESYAGYDYYGHPIPYGMEPWGQGTLVTVSSASTKGPSVFPLAPSSKSTSGGTAALGCLVKDYFPEPVTVSWNSGALTSGVHTFPAVLQSSGLYSLSSVVTVPSSSLGTQTYICNVNHKPSNTKVDKKVEPKSCGGGGSGGGGSEVQLVESGGGLVKPGGSLRLSCAASGFTFSRYNMNWVRQAPGCGLEWVSSISTSSNYIYYADSVKGRFTFSRDNAKNSLDLQMSGLRAEDTAIYYCTRGWGPFDYWGQGTLVTVSSGGGSGGSGGCPPCGGSGGDIQMTQSPSSLSASVGDRVTITCRARQSIGTAIHWYQQKPGKAPKLLIKYASESISGVPSRFSGSGSGTDFTLTISSLQPEDFATYYCQQSGSWPYTFGCGTKLEIKEPKSSDKTHTCPPCPAPEAAGGPSVFLFPPKPKDTLMISRTPEVTCVVVSVSHEDPEVKFNWYVDGVEVHNAKTKPREEQYNSTYRVVSVLTVLHQDWLNGKEYKCKVSNKALPAPIEKTISKAKGQPREPQVYTLPPSREEMTKNQVSLWCLVKGFYPSDIAVEWESNGQPENNYKTTPPVLDSDGSFFLYSKLTVDKSRWQQGNVFSCSVMHEALHNHYTQKSLSLSPGK
heavy 2: QVQLVQSGAEVKKPGASVKVSCKASGFSLSSYAMSWVRQAPGQGLEWMGVIDSGGTTYYAQKFQGRVTMTRDTSTSTVYMELSSLRSEDTAVYYCARESYAGYDYYGHPIPYGMEPWGQGTLVTVSSASTKGPSVFPLAPSSKSTSGGTAALGCLVKDYFPEPVTVSWNSGALTSGVHTFPAVLQSSGLYSLSSVVTVPSSSLGTQTYICNVNHKPSNTKVDKKVEPKSCDKTHTCPPCPAPEAAGGPSVFLFPPKPKDTLMISRTPEVTCVVVSVSHEDPEVKFNWYVDGVEVHNAKTKPREEQYNSTYRVVSVLTVLHQDWLNGKEYKCKVSNKALPAPIEKTISKAKGQPREPQVYTLPPSREEMTKNQVSLSCAVKGFYPSDIAVEWESNGQPENNYKTTPPVLDSDGSFFLVSKLTVDKSRWQQGNVFSCSVMHEALHNRFTQKSLSLSPGK
light: DIQMTQSPSTLSASVGDRVTITCQASQSLYNNKNLAWYQQKPGKAPKLLIYYASALASGVPSRFSGSGSGTEFTLTISSLQPDDFATYYCQGEFNCNSADCNSFGGGTKVEIKRTVAAPSVFIFPPSDEQLKSGTASVVCLLNNFYPREAKVQWKVDNALQSGNSQESVTEQDSKDSTYSLSSTLTLSKADYEKHKVYACEVTHQGLSSPVTKSFNRGEC
notes: Chain A heavy: CALRB1114 Fab heavy part, CD3 spFv (HL), Fc; Chain B heavy: CALRB1114
EC50 (read off the curve) [1]: ~2 nM | binding result [2]: no binding | EC50 (read off the curve) [3]: ~5 nM

B2: C3CRB136 CALRmut x CD3 bispecific antibody (bispecific antibody, human IgG1, kappa, L234A L235A)
scFv: DIQMTQSPSSLSASVGDRVTITCRARQSIGTAIHWYQQKPGCAPKLLIKYASESISGVPSRFSGSGSGTDFTLTISSLQPEDFATYYCQQSGSWPYTFGQGTKLEIKGGGSGGSGGCPPCGGSGGEVQLVESGGGLVKPGGSLRLSCAASGFTFSRYNMNWVRQAPGKGLEWVSSISTSSNYIYYADSVKGRFTFSRDNAKNSLDLQMSGLRAEDTAIYYCTRGWGPFDYWGCGTLVTVSSEPKSSDKTHTCPPCPAPEAAGGPSVFLFPPKPKDTLMISRTPEVTCVVVSVSHEDPEVKFNWYVDGVEVHNAKTKPREEQYNSTYRVVSVLTVLHQDWLNGKEYKCKVSNKALPAPIEKTISKAKGQPREPQVYTLPPSREEMTKNQVSLWCLVKGFYPSDIAVEWESNGQPENNYKTTPPVLDSDGSFFLYSKLTVDKSRWQQGNVFSCSVMHEALHNHYTQKSLSLSPGK
heavy: QVQLVQSGAEVKKPGASVKVSCKASGFSLSSYAMSWVRQAPGQGLEWMGVIDSGGTTYYAQKFQGRVTMTRDTSTSTVYMELSSLRSEDTAVYYCARESYAGYDYYGHPIPYGMEPWGQGTLVTVSSASTKGPSVFPLAPSSKSTSGGTAALGCLVKDYFPEPVTVSWNSGALTSGVHTFPAVLQSSGLYSLSSVVTVPSSSLGTQTYICNVNHKPSNTKVDKKVEPKSCGGGGSGGGGSQVQLVQSGAEVKKPGASVKVSCKASGFSLSSYAMSWVRQAPGQGLEWMGVIDSGGTTYYAQKFQGRVTMTRDTSTSTVYMELSSLRSEDTAVYYCARESYAGYDYYGHPIPYGMEPWGQGTLVTVSSASTKGPSVFPLAPSSKSTSGGTAALGCLVKDYFPEPVTVSWNSGALTSGVHTFPAVLQSSGLYSLSSVVTVPSSSLGTQTYICNVNHKPSNTKVDKKVEPKSCDKTHTCPPCPAPEAAGGPSVFLFPPKPKDTLMISRTPEVTCVVVSVSHEDPEVKFNWYVDGVEVHNAKTKPREEQYNSTYRVVSVLTVLHQDWLNGKEYKCKVSNKALPAPIEKTISKAKGQPREPQVYTLPPSREEMTKNQVSLSCAVKGFYPSDIAVEWESNGQPENNYKTTPPVLDSDGSFFLVSKLTVDKSRWQQGNVFSCSVMHEALHNRFTQKSLSLSPGK
light: B1 light
notes: Chain B heavy: two CALRB1114 Fab heavy parts in tandem, Fc
binding result [4]: binds | binding result [5]: binds | binding result [6]: no binding
